Experiment [1] has as its target forty-residue β-amyloid peptide (human Aβ), aged (aggregated) unless said otherwise (human) (UniProt P05067). Nature of the experiment: cell-based or functional assay.
The target of experiment [2] is T1, BBP1 intracellular loop (pOZ339), Gal4 DNA-binding domain fusion (yeast; human, UniProt P04386 1-147).
T1 construct: also called BBP1 intracellular region; predicted intracellular domain of BBP1
Nature of the experiment: yeast 2-hybrid, two independently derived clones of each strain against vector. From the text:
BBP1ΔC was made by using the pACT2-specific oligo #6 with antisense oligo #9 (5′-CTCGAG TCAAGATATGGGCTTGAAAAAAC). After TA cloning, isolation of the EcoRI-XhoI fragment and cloning into pACT2, the resultant plasmid, pEK219, expressed BBP1 from residue 68 to 175. Sequences encoding the BBP1 intracellular loop were amplified using oligonucleotides #10 (5′-CCTTCC ATGGAAGTGGCAGTCGCATTGTCT) plus #11 (5′-[…] TCAAAACCCTACAGTGCAAAAC). This product, containing BBP1 codons 185 to 217, was digested with NcoI+XhoI and cloned into pAS2 cleaved with NcoI +SalI to generate pOZ339. Construction of all Gα protein expression plasmids utilized the BamHI site near the center of each rat cDNA sequence as the site of fusion in pACT2 (Kang, Y. -S., Kane, J., Kurjan, J., Stadel, J., and Tipper, D. (1990) Mol Cell Biol 10, 2582-2590). Sense primers annealed to sequences 5′ of the BamHI site; antisense primers annealed to sequences 3′ of the stop codon and included a SalI restriction site. Primers were: […]
Structural analysis of BBP1 indicated it contained a structural motif known to be a Gα protein activating sequence in the related G protein-coupled receptors. […] The predicted intracellular domain of BBP1 was expressed as a Gal4 DNA-binding domain with portions of rat Gαs, Gαo, or Gαl2 expressed as Gal4 activation domain fusion proteins. […]

Experiment [3] addresses T2, human BAP42 fused to the Gal4 DNA-binding domain (BAP^BD; expression plasmid pEK162) (yeast; human, UniProt P04386 1-147; P05067 672-713).
T2 construct: The screening strain also expressed free BAP42 (pEK149); also called BAP fusion protein; human BAP fusion protein
Nature of the experiment: yeast 2-hybrid. The method, then:
These fusion proteins were assayed with the BAP fusion protein and responses compared to those of strains expressing the larger BBP1Δtm protein. The BBP1ΔC protein induced a weak Y2H response (compare BBP1ΔC to vector, FIG. 4), but the BBP1ΔN protein, containing the first tm domain and adjacent amino-proximal sequences produced a response only slightly weaker than that observed with BBP1Δtm.
Bioassays: Strains were grown overnight in 2 ml SC medium lacking leucine and tryptophan to a density of approximately 7×10⁷ cells per ml. Cells were counted and 10-fold serial dilutions made from […] in sterile water. These samples were spotted in 5 μl aliquots on SC medium lacking leucine, tryptophan and histidine and containing 25 mM 3-amino-triazole. Plates were incubated at 30° C. for 2 to 3 days. Positive protein/protein interactions were identified by increased prototrophic growth compared to control strains expressing the Gal4 DNA-binding domain fusion protein plus an irrelevant transcriptional activation domain fusion protein (or simply containing the pACT vector without inserted sequences). This assay method was highly reproducible and provided for the detection of subtle inductions of growth mediated by the specific interaction between target proteins. […]

This note sets out measurements from patent publication US20020058267A1 (Pfizer, published 2002).

On to “BBP1 expressed in transfected cells from the BBP1 expression plasmid pBBP (pOZ363) (receptor)”, for which, in experiment [1], the % apoptotic nuclei, Ntera2 neurons, 10 µM aged Aβ for 48 hrs is 22.3%; the % apoptotic nuclei, Ntera2 stem cells, 10 µM aged Aβ for 48 hrs worked out at 12.3%; the cell viability after aggregated Aβ peptide for 48 hrs (loss of total cells) (% of total cells) amounted to 22.

B1: rat Gαi2 C-terminal region (pOZ348), Gal4 activation domain fusion (other, UniProt P04897 213-355, looked up, not shown: large carriers)
chain: IHCFEGVTAIIFCVALSAYDLVLAEDEEMNRMHESMKLFDSICNNKWFTDTSIILFLNKKDLFEEKITQSPLTICFPEYTGANKYDEAASYIQSKFEDLNKRKDTKEIYTHFTCATDTKNVQFVFDAVTDVIIKNNLKDCGLF
notes: range 213-355; also called Gai2
Consider B1, for which, in experiment [2], the binding result was “binds”.

B2: BBP1ΔN (pEK216), Gal4 activation domain fusion (other, not shown: small tags and cut ends)
chain: PKINDATQEPVNCTNYTAHVSCFPAPNITCKDSSGNETHFTGNEVGFFKPISCRNVNGYSYKVAVALSLFLGWLGADRF
notes: Encodes the first tm domain plus the preceding 52 amino acids; also called BBP1?N (so in the source); ?N construct
B2: the binding result in experiment [3] is recorded as “binds”.

B3: rat Gαs C-terminal region (pOZ345), Gal4 activation domain fusion (other, UniProt P63095 235-394, looked up, not shown: large carriers)
chain: IQCFNDVTAIIFVVASSSYNMVIREDNQTNRLQEALNLFKSIWNNRWLRTISVILFLNKQDLLAEKVLAGKSKIEDYFPEFARYTTPEDATPEPGEDPRVTRAKYFIRDEFLRISTASGDGRHYCYPHFTCAVDTENIRRVFNDCRDIIQRMHLRQYELL
notes: range 235-394; also called Gas
In the case of B3, the binding result in experiment [2] is “binds”.
